Numbered stars: 1 amine (or outer) side, 2 acyl side, 3 side chain; on linkers, the order of the positions; unused ones are H or OH. Square brackets hold non-standard residues; d marks the D form. Side chains are listed from the residue outwards. Ends that are not written are not given here. * marks the point of attachment. C20 diacid = O=C(O)CCCCCCCCCCCCCCCCCCC(=O)*; γGlu = O=C(O)[C@H](CCC(=O)[*:2])N[*:1]; αMeL = CC(C)C[C@](C)(N)C(=O)O; αMeK = C[C@](N)(CCCCN)C(=O)O; AEEA = NCCOCCOCC(=O)O; Aib = CC(C)(N)C(=O)O
Biological target: T1, human gastric inhibitory peptide receptor (hGIPR) (Homo sapiens, UniProt P48546)
T1 construct: expressed in transfected cells; host or cells: HEK293
T1 sequence (P48546 22-466): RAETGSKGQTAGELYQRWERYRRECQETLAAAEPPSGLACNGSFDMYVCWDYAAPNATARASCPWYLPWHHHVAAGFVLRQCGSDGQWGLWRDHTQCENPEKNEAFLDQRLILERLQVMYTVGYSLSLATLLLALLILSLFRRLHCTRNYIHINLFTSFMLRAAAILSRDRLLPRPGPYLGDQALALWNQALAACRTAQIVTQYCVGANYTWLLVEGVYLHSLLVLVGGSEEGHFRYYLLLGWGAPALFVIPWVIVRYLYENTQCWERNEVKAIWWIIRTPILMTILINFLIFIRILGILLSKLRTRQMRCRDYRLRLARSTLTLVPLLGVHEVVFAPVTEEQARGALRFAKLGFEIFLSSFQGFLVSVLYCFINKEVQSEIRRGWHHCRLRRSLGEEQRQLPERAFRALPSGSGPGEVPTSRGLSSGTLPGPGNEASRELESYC
Assay: cAMP pharmacological functional assay in presence of 0.1% casein, hGIPR
Assay type: cell-based
Conditions: ratio of hGIPR to hGLP1R cAMP EC50 ratios

Substance | [hGIPR/hGLP1R] EC50 Ratio
Y-Aib-EGT-αMeF(2F)-TSDYSI-αMeL-LDEK((2-[2-(2-Amino-ethoxy)-ethoxy]-acetyl)2-(γGlu)-CO—(CH2)16—CO2H)AQ-Aib-EFIEYLIEGG-NH2 (YXEGTXTSDYSIXLDEKAQXEFIEYLIEGG; Aib, αMe residues, C18 diacid lipidation, C-amide; (2)..(2) Xaa at position 2 is Aib; (6)..(6) Xaa at position 6 is alpha-methyl-Phe(2F); (13)..(13) Xaa at position 13 is alpha-methyl-Leu; MOD_RES (17)..(17) Lys at position 17 is chemically modified by conjugation of the epsilon-amino group of the Lys side chain with (2-[2-(2-amino-ethoxy)-ethoxy]-acetyl)2-(gamma-Glu)-CO-(CH2)16- CO2H; (20)..(20) Xaa at position 20 is Aib; MOD_RES (30)..(30) Gly a) [Peptide 104] | 2.66
Y-Aib-EGT-αMeF-TSDYSILLDKIAQ-Aib-AFIEYLIK((2-[2-(2-Amino-ethoxy)-ethoxy]-acetyl)2-(γGlu)-CO—(CH2)18—CO2H)GG-NH2 (YXEGTXTSDYSILLDKIAQXAFIEYLIKGG; Aib, αMeF; K lipidated C20 diacid-γGlu-AEEA2; C-terminal amide; (2)..(2) Xaa at position 2 is Aib; (6)..(6) Xaa at position 6 is alpha-methyl-Phe; (20)..(20) Xaa at position 20 is Aib; MOD_RES (28)..(28) Lys at position 28 is chemically modified by conjugation of the epsilon-amino group of the Lys side chain with (2-[2-(2-amino-ethoxy)-ethoxy]-acetyl)2-(gamma-Glu)-CO-(CH2)18- CO2H; MOD_RES (30)..(30) Gly at position 30 is amidated) [Peptide 95] | 2.52
Y-Aib-EGT-αMeF(2F)-TSDVSI-αMeL-LD-Orn-K((2-[2-(2-Amino-ethoxy)-ethoxy]-acetyl)2-(γGlu)-CO—(CH2)16—CO2H)AQ-Aib-TFI-(D-Glu)-αMeY-LIEGGPSSGAPPPS-NH2 (YXEGTXTSDVSIXLDXKAQXTFIXXLIEGGPSSGAPPPS; Aib, Orn, αMe residues, lipidated Lys, D-Glu, amide; (2)..(2) Xaa at position 2 is Aib; (6)..(6) Xaa at position 6 is alpha-methyl-Phe(2F); (13)..(13) Xaa at position 13 is alpha-methyl-Leu; (16)..(16) Xaa at position 16 is Orn; MOD_RES (17)..(17) Lys at position 17 is chemically modified by conjugation of the epsilon-amino group of the Lys side chain with (2-[2-(2-amino-ethoxy)-ethoxy]-acetyl)2-(gamma-Glu)-CO-(CH2)16- CO2H; (20)..(20) Xaa at positi) [Peptide 241] | 3.77
Y-Aib-EGT-αMeF(2F)-TSD-3Pal-SI-αMeL-LDEK((2-[2-(2-Amino-ethoxy)-ethoxy]-acetyl)2-(γGlu)-CO—(CH2)18—CO2H)AQ-Aib-EFIEYLIEGGPSSGAPPPS-NH2 (YXEGTXTSDXSIXLDEKAQXEFIEYLIEGGPSSGAPPPS; Aib, αMeF(2F), 3Pal, αMeL; lipidated K; C-terminal amide; (2)..(2) Xaa at position 2 is Aib; (6)..(6) Xaa at position 6 is alpha-methyl-Phe(2F); (10)..(10) Xaa at position 10 is 3Pal; (13)..(13) Xaa at position 13 is alpha-methyl-Leu; MOD_RES (17)..(17) Lys at position 17 is chemically modified by conjugation of the epsilon-amino group of the Lys side chain with (2-[2-(2-amino-ethoxy)-ethoxy]-acetyl)2-(gamma-Glu)-CO-(CH2)18- CO2H; (20)..(20) Xaa at posit) [Peptide 157] | 2.52
Y-Aib-EGT-αMeF(2F)-TSD-4Pal-SI-αMeL-LDEK((2-[2-(2-Amino-ethoxy)-ethoxy]-acetyl)2CO—(CH2)18—CO2H)AQ-Aib-EFI-(D-Glu)-YLIEGGPSSGAPPPS-NH2 (YXEGTXTSDXSIXLDEKAQXEFIXYLIEGGPSSGAPPPS; Aib, αMeF(2F), 4Pal, αMeL, D-Glu; lipidated K; amide; (2)..(2) Xaa at position 2 is Aib; (6)..(6) Xaa at position 6 is alpha-methyl-Phe(2F); (10)..(10) Xaa at position 10 is 4Pal; (13)..(13) Xaa at position 13 is alpha-methyl-Leu; MOD_RES (17)..(17) Lys at position 17 is chemically modified by conjugation of the epsilon-amino group of the Lys side chain with (2-[2-(2-amino-ethoxy)-ethoxy]-acetyl)2-CO-(CH2)18-CO2H; (20)..(20) Xaa at position 20 is Aib) [Peptide 206] | 3.35
Y-Aib-EGT-αMeF(2F)-TSDYSI-αMeL-LDEK((2-[2-(2-Amino-ethoxy)-ethoxy]-acetyl)2-(γGlu)-CO—(CH2)18—CO2H)AQ-Aib-EFISYLIEGGPSSGAPPPS-NH2 (YXEGTXTSDYSIXLDEKAQXEFISYLIEGGPSSGAPPPS; Aib, αMeF(2F), αMeL; acylated lysine C20 diacid; amide; (2)..(2) Xaa at position 2 is Aib; (6)..(6) Xaa at position 6 is alpha-methyl-Phe(2F); (13)..(13) Xaa at position 13 is alpha-methyl-Leu; MOD_RES (17)..(17) Lys at position 17 is chemically modified by conjugation of the epsilon-amino group of the Lys side chain with (2-[2-(2-amino-ethoxy)-ethoxy]-acetyl)2-(gamma-Glu)-CO-(CH2)18- CO2H; (20)..(20) Xaa at position 20 is Aib; MOD_RES (39)..(39) Ser a) [Peptide 150] | 3.34
Y-Aib-EGTFTSDYSI-αMeL-LDKK((2-[2-(2-Amino-ethoxy)-ethoxy]-acetyl)2-(γGlu)-CO—(CH2)18—CO2H)AQ-Aib-AFIEYLIEGGPSSGAPPPS-NH2 (YXEGTFTSDYSIXLDKKAQXAFIEYLIEGGPSSGAPPPS; Aib, αMeL; lipidated K; C-terminal amide; (2)..(2) Xaa at position 2 is Aib; (13)..(13) Xaa at position 13 is alpha-methyl-Leu; MOD_RES (17)..(17) Lys at position 17 is chemically modified by conjugation of the epsilon-amino group of the Lys side chain with (2-[2-(2-amino-ethoxy)-ethoxy]-acetyl)2-(gamma-Glu)-CO-(CH2)18- CO2H; (20)..(20) Xaa at position 20 is Aib; MOD_RES (39)..(39) Ser at position 39 is amidated) [Peptide 20] | 4.87
Y-Aib-EGTFTSDYSILLDKK((2-[2-(2-Amino-ethoxy)-ethoxy]-acetyl)2-(γGlu)-CO—(CH2)18—CO2H)AQ-Aib-AFI-(D-Glu)-YLIEGGPSSGAPPPS-NH2 (YXEGTFTSDYSILLDKKAQXAFIXYLIEGGPSSGAPPPS; Aib, D-Glu, lipidated Lys, C-terminal amide; (2)..(2) Xaa at position 2 is Aib; MOD_RES (17)..(17) Lys at position 17 is chemically modified by conjugation of the epsilon-amino group of the Lys side chain with (2-[2-(2-amino-ethoxy)-ethoxy]-acetyl)2-(gamma-Glu)-CO-(CH2)18- CO2H; (20)..(20) Xaa at position 20 is Aib; (24)..(24) Xaa at position 24 is D-Glu; MOD_RES (39)..(39) Ser at position 39 is amidated) [Peptide 84] | 9.19
Y-Aib-EGTFTSDYSI-αMeL-LDEK((2-[2-(2-Amino-ethoxy)-ethoxy]-acetyl)2-(γGlu)-CO—(CH2)18—CO2H)AQ-αMeK-AFIEYLLE-Aib-GPSSGAPPPS-NH2 (Y[Aib]EGTFTSDYSI[αMeL]LDEK([AEEA-AEEA-γGlu-C20 diacid])AQ[αMeK]AFIEYLLE[Aib]GPSSGAPPPS-NH2; N-terminus assumed; SMILES CC[C@H](C)[C@H](NC(=O)[C@H](Cc1ccccc1)NC(=O)[C@H](C)NC(=O)[C@](C)(CCCCN)NC(=O)[C@H](CCC(N)=O)NC(=O)[C@H](C)NC(=O)[C@H](CCCCNC(=O)COCCOCCNC(=O)COCCOCCNC(=O)CC[C@H](NC(=O)CCCCCCCCCCCCCCCCCCC(=O)O)C(=O)O)NC(=O)[C@H](CCC(=O)O)NC(=O)[C@H](CC(=O)O)NC(=O)[C@H](CC(C)C)NC(=O)[C@](C)(CC(C)C)NC(=O)[C@@H](NC(=O)[C@H](CO)NC(=O)[C@H](Cc1ccc(O)cc1)NC(=O)[C@H](CC(=O)O)NC(=O)[C@H](CO)NC(=O)[C@@H](NC(=O)[C@H](Cc1ccccc1)NC(=O)[C@@H](NC(=O)CNC(=O)[C@H](CCC(=O)O)NC(=O)C(C)(C)NC(=O)[C@@H](N)Cc1ccc(O)cc1)[C@@H](C)O)[C@@H](C)O)[C@@H](C)CC)C(=O)N[C@@H](CCC(=O)O)C(=O)N[C@@H](Cc1ccc(O)cc1)C(=O)N[C@@H](CC(C)C)C(=O)N[C@@H](CC(C)C)C(=O)N[C@@H](CCC(=O)O)C(=O)NC(C)(C)C(=O)NCC(=O)N1CCC[C@H]1C(=O)N[C@@H](CO)C(=O)N[C@@H](CO)C(=O)NCC(=O)N[C@@H](C)C(=O)N1CCC[C@H]1C(=O)N1CCC[C@H]1C(=O)N1CCC[C@H]1C(=O)N[C@@H](CO)C(N)=O) [Peptide 22] | 6.41
